We go through 1 molecule from patent US20200291075A1 (TRUSTEES OF PRINCETON UNIVERSITY, published 2020).

Some results are limits rather than exact numbers.

In assay [1] the target is T1, YFP-SH2 (human, UniProt P00519 112-232).
T1 construct: domain: SH2 domain; also called SH2-tagged YFP; EZ-L703
T1 sequence (looked up): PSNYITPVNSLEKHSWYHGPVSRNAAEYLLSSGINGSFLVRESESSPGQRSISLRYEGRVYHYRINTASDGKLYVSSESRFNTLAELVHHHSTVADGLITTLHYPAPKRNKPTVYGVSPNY
The assay can be described thus: BLI; binder on Ni-NTA sensor, YFP-SH2 in solution; lit conformation, ambient light. A general note: BLI is a label-free optical method that tracks binding on a fibre tip over time.
Description: (§1) Ni-NTA sensors (ForteBio) were first equilibrated using Buffer A for 10 minutes prior the measurement. A volume of 200 μL of Buffer A or protein solutions (previously dialyzed with Buffer A when needed) was added to clear, 96-well plates. During the experimental run, the Ni-NTA sensors were first immersed in Buffer A to record the baseline. […] The sensors were then transferred back into Buffer A to remove unbound protein. […] To measure the unbinding rate constant (koff), the sensors were then moved to wells containing Buffer A to trigger dissociation of YFP-SH2. To measure binding kinetics of the light state, the lid of the Octet remained open during the measurement and a blue LED panel was held above the 96-well plate, maintaining constant blue illumination for the duration of the experiment. […] The raw binding and unbinding data were simultaneously fit to models of the binding and unbinding reactions:

For assay [2], the target named is T1, YFP-SH2. The assay can be described thus: LCAC in batch; His-tag bound OptoMB on Talon cobalt resin, target from crude E. coli lysate bound in the dark.
Description: (§2) After elution, beads were washed with imidazole to recover any remaining protein bound to the beads in order to estimate the capacity and yields of the resin.
(§3) The Resin was rotated in 50 mL conical tubes (covered with aluminum foil) at room temperature for 20 minutes and then poured in 20 mL BioRad glass Econo-Columns and washed with Buffer A (50 column volumes). […] The mixture was then vertically rotated gently for 45 minutes in 15 ml conical tubes.
Assay [3] deals with T1, YFP-SH2. The experiment in a line: BLI; His-tagged binder on Ni-NTA sensor, YFP-SH2 in solution; light conformation.
Description: as §1
Assay [4] addresses T1, YFP-SH2. The experiment in a line: LCAC in batch, Talon resin; share of the resin-bound target eluted by blue light.
Description: as §2, §3
In assay [5] the target is T1, YFP-SH2. The experiment in a line: BLI; lit-state against dark-state OptoMB variants.
Description: as §1
Assay [6] concerns the target T1, YFP-SH2. The experiment in a line: BLI; binder on Ni-NTA sensor, YFP-SH2 in solution; lit conformation, 450 nm light.
Description: as §1

B1: OptoMB (His6-tagged, wild-type AsLOV2) (designed binder)
chain: HHHHHHSSGENLYFQGHASGSSVSSVPTKLEVVAATPTSLLISWDAPMSSSSVYYYRITYGETGGNSPVQEFTVPYSGLERIEKNFVITDPRLPDNPIIFASDSFLQLTEYSREEILGRNCRFLQGPETDRATVRKIRDAIDNQTEVTVQLINYTKSGKKFWNLFHLQPMRDQKGDVQYFIGVQLDGTEHVRDAAEREGVMLIKKTAENIDEAAGSSTATISGLSPGVDYTITVYAWGEDSAGYMFMYSPISINYRTC
notes: also called OptoMB 1; OptoMB 2
Take B1: in assay [1], the Kd (as a rule, a measure of binding affinity in units of concentration) is more than 100 µM; the koff (as a rule, a measure of how fast the partners let go of each other) amounted to 0.34 s⁻¹; the association rate constant (kon) (as a rule, the rate constant with which the complex forms) was less than 1000 M⁻¹ s⁻¹. For the same molecule, in assay [2], the “Resin Capacity” value was found to be 5.85 mg/mL. Moreover, in assay [3], the koff turned out to be 0.21 s⁻¹ and the kon was less than 1000 M⁻¹ s⁻¹. The “Yield (% of recovery from the resin)” value in assay [4] is 17.8%. For the same molecule, in assay [5], the “fold change of kon and koff, light against dark” value is approximately 20 fold. In assay [6], this molecule returned a Kd of more than 100 µM, a koff of 0.21 s⁻¹ and a kon of less than 1000 M⁻¹ s⁻¹.
